# Data reported in US9481870B2, “Nucleic acid encoding a polypeptide having aminotransferase activity, vectors and host cells comprising the nucleic acid” (KANEKA CORPORATION, priority 2010, dated 2016).
# B1: TPM: purified aminotransferase polypeptide from Pseudomonas sp. MV37, about 50,000 molecular weight, amino acid sequence SEQ ID NO: 1 (protein, listed as Pseudomonas sp.)
# chain: MNHLEKMLELDRNHLIHPHLPKSEFSRTIFARGKGCKLWDTEGREYLDATGGLWLAQIGHGREEIAEVAARQMKQLEYFTCFWDFSNERAIELAEKLARLAPGDLEMSFFTSGGSEGDDAAIKTARYYHSQRGEPKRTWILSRNNAYHGLAYGGGTATGFPELRDGMGPGLPHVAYLTQPNAYRHYYFDGQNPTDFCVSELEKMIASIGAENIAAMIAEPIMGVGGMVPPPVDYWPRMSQVLKKNGILLIFDEVVSAFGRSGHWFAAEKYGVIPDIMVTAKGISSGYIPLGAVIMSRDVADTVREGHGYPLGYTYSGHPVACAVALENLRILEDEDLINRSNHMGTYIAEQLTALRDNPCVGEVRQAGMGIGIELVTDKESRQPLPDAALVIPDIIREETGVIVRISNATNLCMSPPLTMSREEADRAVEAVCSVLSRVKPDGKV
# Tests used:
# [1] = Activity of purified TPM for 1-benzyl-3-pyrrolidinone and optical purity of product; assay type: biochemical; details: 2 hours
# Protocol: The above properties can be determined by the following method. Specifically, a purified polypeptide is added to a substrate solution having the following composition so that it has a final concentration ranging from 0.1 mg/mL to 1 mg/mL for reaction at 30° C. Furthermore, the reaction is continued until 0.6 mM or more 1-benzyl-3-aminopyrrolidine (as determined by the following quantitative analysis) is generated. After the completion of the reaction, the optical purity of the 1-benzyl-3-aminopyrrolidine generated in the reaction solution is analyzed by HPLC under the following conditions. […]
# [High Performance Liquid Chromatography (HPLC) Analysis Conditions] • <Quantitative A> • Column: Finepak SIL C18-T (JASCO Corporation) • Eluent: distilled water 1260 mL/acetonitrile 740 mL/KH2 PO4 10 g/SDS 2.88 g (pH3.6) • Flow rate: 1 mL/minute • Detection: 254 nm • Column temperature: 40° C. […]
# A reaction solution was treated with an appropriate amount of sodium carbonate so that it became basic, derivatized with dinitrobenzoyl chloride, and then analyzed under the following conditions. • Column: Chiral pak IA (Daicel Corporation) • Eluent: hexane/ethanol/diethylamine/acetonitrile=800/200/1/5 (volume ratio) • Flow rate: 0.8 mL/minute • Detection: 254 nm
# [2] = Transamination activity assay (activity assay A), activity for (S)-1-phenethylamine; assay type: biochemical; details: (S)-1-phenethylamine 25 mM, sodium pyruvate 25 mM, pH 8.0, 30° C., 5 minutes
# Protocol: The above transamination activity can be determined by the following method. Specifically, first, a purified polypeptide is added to a substrate solution having the following composition so that the total volume is 1 mL. After 5 minutes of reaction at 30° C., 0.05 mL of 6N hydrochloric acid is added to stop the reaction. The reaction solution is then analyzed by HPLC under the following conditions and then the quantity of the thus generated acetophenone is determined (hereinafter, referred to as “activity assay A”).
# (§1) The transamination activity of purified TPM was examined under the following activity assay conditions. Specifically, purified TPM was added to a substrate solution with the composition given below to a total amount of 1 mL. After 5 minutes of reaction at 30° C., 0.05 mL of 6N hydrochloric acid was added to stop the reaction. HPLC analysis was conducted under the following conditions.
# [High Performance Liquid Chromatography (HPLC) Analysis Conditions] • Column: Wakosil-II 5C18 RS (Wako Pure Chemical Industries, Ltd.) • Eluent: 10 mM potassium phosphate buffer (pH5.3): acetonitrile=3:2 • Flow rate: 1 mL/minute • Detection: 241 nm • (1) Activity for (S)-1-phenethylamine: […]
# [3] = Optimum pH of transamination activity; assay type: biochemical
# Protocol: The optimum pH for transamination is determined by the above activity assay A using combinations of the following buffers and pHs. […] When activity levels are different depending on buffer types, the activity level higher than the other is employed even if the pHs are the same. • pH4.0, 4.5, 5.0, 5.5: 0.1 M sodium acetate buffer • pH6.0, 6.5, 7.0, 7.5, 8.0: 0.1 M potassium phosphate buffer • pH7.5, 8.0, 8.5, 9.0: 0.1M Tris-hydrochloric acid buffer (Optimum Temperature)
# as §1
# Transamination activity was determined in a manner similar to the above at pHs ranging from 4.0 to 9.0 and then the optimum pH of TPM was examined.
# The following buffers were used according to pH for determination.
# [Buffer] • pH4.0, 4.5, 5.0, or 5.5: 0.1 M sodium acetate buffer • pH6.0, 6.5, 7.0, 7.5, or 8.0: 0.1 M potassium phosphate buffer • pH7.5, 8.0, 8.5, or 9.0: 0.1 M tris-hydrochloric acid buffer • (3) Optimum Temperature: […]
# [4] = Optimum temperature of transamination activity; assay type: biochemical
# Protocol: as §1
# Transamination activity was determined at 10° C., 20° C., 30° C., 40° C., 50° C., 60° C., and 70° C. under the same conditions above.
# [5] = Thermal stability (residual activity after 30 minutes heating); assay type: physicochemical; details: for Residual activity: pH7.5, before heat treatment = 100
# Protocol: The thermal stability of the polypeptide is determined as follows.
# The purified TPM was reacted for 30 minutes in 0.1 M potassium phosphate buffer (pH7.5) containing 0.5 mM pyridoxal phosphate at 30° C., 40° C., 50° C., 60° C., 70° C., and 80° C., and then activity assay was performed in a similar manner. As a result, 90% or more of the activity before heat treatment remained after treatment at 30° C. to 60° C.
molecule,measurement,setting,value
B1,conversion rate,"[1]; (S)-1-phenethylamine 85.6 mM, 1-benzyl-3-pyrrolidinone 57.1 mM, pH 7.0, 30° C.",90%
same,optical purity,"[1]; generated (S)-1-benzyl-3-aminopyrrolidine, 30° C.",98.0 % e.e.
same,Transamination activity for (S)-1-phenethylamine,[2],11.8 U/mg
same,Relative activity,"[3]; 0.1M Potassium phosphate, pH 6.0, activity at pH7 = 100",86
same,Relative activity,"[3]; 0.1M Potassium phosphate, pH 6.5, activity at pH7 = 100",94
same,Relative activity,"[3]; 0.1M Potassium phosphate, pH 7.0, designated as 100",100
same,Relative activity,"[3]; 0.1M Potassium phosphate, pH 7.5, activity at pH7 = 100",88
same,Relative activity,"[3]; 0.1M Potassium phosphate, pH 8.0, activity at pH7 = 100",67
same,Relative activity,"[3]; 0.1M Sodium acetate, pH 4.0, activity at pH7 = 100",7
same,Relative activity,"[3]; 0.1M Sodium acetate, pH 4.5, activity at pH7 = 100",25
same,Relative activity,"[3]; 0.1M Sodium acetate, pH 5.0, activity at pH7 = 100",57
same,Relative activity,"[3]; 0.1M Sodium acetate, pH 5.5, activity at pH7 = 100",71
same,Relative activity,"[3]; 0.1M Tris-hydrochloric acid, pH 7.5, activity at pH7 = 100",96
same,Relative activity,"[3]; 0.1M Tris-hydrochloric acid, pH 8.0, activity at pH7 = 100",95
same,Relative activity,"[3]; 0.1M Tris-hydrochloric acid, pH 8.5, activity at pH7 = 100",85
same,Relative activity,"[3]; 0.1M Tris-hydrochloric acid, pH 9.0, activity at pH7 = 100",67
same,optimum temperature,[4]; 10° C. to 70° C. tested,60 °C
same,Relative activity,"[4]; Reaction temperature 10° C., activity at 60° C. = 100",8
same,Relative activity,"[4]; Reaction temperature 20° C., activity at 60° C. = 100",16
same,Relative activity,"[4]; Reaction temperature 30° C., activity at 60° C. = 100",33
same,Relative activity,"[4]; Reaction temperature 40° C., activity at 60° C. = 100",49
same,Relative activity,"[4]; Reaction temperature 50° C., activity at 60° C. = 100",77
same,Relative activity,"[4]; Reaction temperature 60° C., designated as 100",100
same,Relative activity,"[4]; Reaction temperature 70° C., activity at 60° C. = 100",68
same,activity remaining relative to before heat treatment,[5]; after treatment at 30° C. to 60° C.,≥ 90%
same,Residual activity,[5]; treatment 30° C.,108
same,Residual activity,[5]; treatment 40° C.,115
same,Residual activity,[5]; treatment 50° C.,120
same,Residual activity,[5]; treatment 60° C.,100
same,Residual activity,[5]; treatment 70° C.,12
